# Reference: patent US6531306
# Like-named read-outs stand apart in the source and are kept apart here.
# What was measured:
# [1] = test system: MAbs specific for DNA-dependent ATPase A
# [2] = target: T1, Active DNA-dependent ATPase A Domain (ADAAD, 82 kDa) (Bos taurus) (UniProt Q9TTA5); settings: blunt-ended stem-loop, dG 18.4; ATP hydrolysis; SEQ:1 inferred
# T1 sequence: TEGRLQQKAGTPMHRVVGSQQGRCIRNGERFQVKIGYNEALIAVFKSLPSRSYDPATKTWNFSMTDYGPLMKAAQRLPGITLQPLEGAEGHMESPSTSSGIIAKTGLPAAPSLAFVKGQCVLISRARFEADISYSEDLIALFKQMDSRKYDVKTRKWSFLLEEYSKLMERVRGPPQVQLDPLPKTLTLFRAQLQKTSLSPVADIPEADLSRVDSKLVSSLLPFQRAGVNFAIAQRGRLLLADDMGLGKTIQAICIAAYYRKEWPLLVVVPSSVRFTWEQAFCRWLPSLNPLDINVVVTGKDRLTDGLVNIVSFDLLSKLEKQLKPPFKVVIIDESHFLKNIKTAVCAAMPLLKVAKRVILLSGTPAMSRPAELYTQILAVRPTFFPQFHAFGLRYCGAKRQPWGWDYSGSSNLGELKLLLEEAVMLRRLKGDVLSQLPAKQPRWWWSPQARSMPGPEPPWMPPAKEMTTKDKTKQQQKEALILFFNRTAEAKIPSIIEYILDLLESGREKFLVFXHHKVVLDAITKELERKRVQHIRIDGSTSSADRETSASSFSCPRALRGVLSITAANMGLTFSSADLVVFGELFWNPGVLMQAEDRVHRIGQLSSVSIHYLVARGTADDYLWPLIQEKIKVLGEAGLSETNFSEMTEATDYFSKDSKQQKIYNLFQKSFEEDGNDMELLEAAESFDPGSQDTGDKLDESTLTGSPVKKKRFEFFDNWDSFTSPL
# [3] = target: T1, Active DNA-dependent ATPase A Domain (ADAAD, 82 kDa) (Bos taurus); settings: ATP hydrolysis
# [4] = target: T1, Active DNA-dependent ATPase A Domain (ADAAD, 82 kDa) (Bos taurus); settings: ATP hydrolysis; remark: listed apart in the source
# [5] = target: T1, Active DNA-dependent ATPase A Domain (ADAAD, 82 kDa) (Bos taurus); settings: ATP hydrolysis; remark: listed apart in the source
# [6] = target: T1, Active DNA-dependent ATPase A Domain (ADAAD, 82 kDa) (Bos taurus); settings: apparent binding constant from ATP hydrolysis kinetics
substance,measurement,setting,value
DNA-dependent ATPase A,DNA-dependent ATP hydrolysis in vitro,[1],none of the MAbs demonstrate inhibition of DNA-dependent ATP hydrolysis in vitro
"GCGCAATTGCGCTCGACGATTTTTTAGCGCAATTGCGC [stem-loop DNA, 12-base loop]",activity (relative activity),[2],90
Table 16 structure 6 AT-rich blunt-ended duplex,activity (relative activity),[3],49
"Table 16 structure 7 blunt-ended duplex, 4 base mismatch",activity (relative activity),[4],66.5
"Table 16 structure 8 blunt-ended duplex, 10 base mismatch",activity (relative activity),[5],83.7
"stem-loop DNA, 3-base loop",Ka,[6],2e+07 M⁻¹
"stem-loop DNA, 6-base loop",Ka,[6],5e+07 M⁻¹
"stem-loop DNA, 9-base loop",Ka,[6],8e+07 M⁻¹
